# Measurements as given in patent publication US20170189519A1.
# What was measured:
# Assay in all cases: ELISA, coated CR6261, P. pastoris medium
# Details in all cases: remark: other sources report otherwise
# [1] = molecular target: 162B3 (influenza A H1N1 A/Brisbane/59/2007)
# [2] = molecular target: 213C11 (influenza A H1N1 A/Brisbane/59/2007)
# [3] = molecular target: 249B11 (influenza A H1N1 A/Brisbane/59/2007)
# [4] = molecular target: 307A10 (influenza A H1N1 A/Brisbane/59/2007)
# [5] = molecular target: 134D3 (influenza A H1N1 A/Brisbane/59/2007)
# [6] = molecular target: 275D4 (influenza A H1N1 A/Brisbane/59/2007)
# [7] = molecular target: 193B6 (influenza A H1N1 A/Brisbane/59/2007)
# [8] = molecular target: 218G11 (influenza A H1N1 A/Brisbane/59/2007)
# [9] = molecular target: 123G2 (influenza A H1N1 A/Brisbane/59/2007)
# [10] = molecular target: 174G3 (influenza A H1N1 A/Brisbane/59/2007)
# [11] = molecular target: 145E8 (influenza A H1N1 A/Brisbane/59/2007)
# [12] = molecular target: 20688 (influenza A H1N1 A/Brisbane/59/2007)
# [13] = molecular target: 148D5 (influenza A H1N1 A/Brisbane/59/2007)
# [14] = molecular target: 112G6 (influenza A H1N1 A/Brisbane/59/2007)
# [15] = molecular target: 134A3 (influenza A H1N1 A/Brisbane/59/2007)
# [16] = molecular target: 214C4 (influenza A H1N1 A/Brisbane/59/2007)
# [17] = molecular target: 188G10 (influenza A H1N1 A/Brisbane/59/2007)
# [18] = molecular target: 275G3 (influenza A H1N1 A/Brisbane/59/2007)
# [19] = molecular target: 187C6 (influenza A H1N1 A/Brisbane/59/2007)
# [20] = molecular target: 185G7 (influenza A H1N1 A/Brisbane/59/2007)
# [21] = molecular target: 191C8 (influenza A H1N1 A/Brisbane/59/2007)
# [22] = molecular target: 138F8 (influenza A H1N1 A/Brisbane/59/2007)
# [23] = molecular target: 216E5 (influenza A H1N1 A/Brisbane/59/2007)
# [24] = molecular target: 137C5 (influenza A H1N1 A/Brisbane/59/2007)
# [25] = molecular target: 113E7 (influenza A H1N1 A/Brisbane/59/2007)
# [26] = molecular target: 284B9 (influenza A H1N1 A/Brisbane/59/2007)
# [27] = molecular target: 129C2 (influenza A H1N1 A/Brisbane/59/2007)
# [28] = molecular target: 266A11 (influenza A H1N1 A/Brisbane/59/2007)
# [29] = molecular target: 188C8 (influenza A H1N1 A/Brisbane/59/2007)
# [30] = molecular target: 134H10 (influenza A H1N1 A/Brisbane/59/2007)
# [31] = molecular target: 271F10 (influenza A H1N1 A/Brisbane/59/2007)
# [32] = molecular target: 188A8 (influenza A H1N1 A/Brisbane/59/2007)
# [33] = molecular target: 145C9 (influenza A H1N1 A/Brisbane/59/2007)
# [34] = molecular target: 123E2 (influenza A H1N1 A/Brisbane/59/2007)
# [35] = molecular target: 194C8 (influenza A H1N1 A/Brisbane/59/2007)
binder,measurement,setting,value
"CR6261 (antibody, V domains shown) VH: EVQLVESGAEVKKPGSSVKVSCKASGGPFRSYAISWVRQAPGQGPEWMGGIIPIFGTTKYAPKFQGRVTITADDFAGTVYMELSSLRSEDTAMYYCAKHMGYQVRETMDVWGKGTTVTVSS VL: QSVLTQPPSVSAAPGQKVTISCSGSSSNIGNDYVSWYQQLPGTAPKLLIYDNNKRPSGIPDRFSGSKSGTSATLGITGLQTGDEANYYCATWDRRPTAYVVFGGGTKLTVLG",CR6261 binding signal,[1],280000
same,CR6261 binding signal,[2],667000
same,CR6261 binding signal,[3],145000
same,CR6261 binding signal,[4],115000
same,CR6261 binding signal,[5],304000
same,CR6261 binding signal,[6],327000
same,CR6261 binding signal,[7],207000
same,CR6261 binding signal,[8],959000
same,CR6261 binding signal,[9],499000
same,CR6261 binding signal,[10],491000
same,CR6261 binding signal,[11],212000
same,CR6261 binding signal,[12],286000
same,CR6261 binding signal,[13],329000
same,CR6261 binding signal,[14],544000
same,CR6261 binding signal,[15],532000
same,CR6261 binding signal,[16],302000
same,CR6261 binding signal,[17],143000
same,CR6261 binding signal,[18],115000
same,CR6261 binding signal,[19],345000
same,CR6261 binding signal,[20],506000
same,CR6261 binding signal,[21],309000
same,CR6261 binding signal,[22],348000
same,CR6261 binding signal,[23],335000
same,CR6261 binding signal,[24],296000
same,CR6261 binding signal,[25],966000
same,CR6261 binding signal,[26],1.66e+06
same,CR6261 binding signal,[27],199000
same,CR6261 binding signal,[28],90600
same,CR6261 binding signal,[29],113000
same,CR6261 binding signal,[30],592000
same,CR6261 binding signal,[31],315000
same,CR6261 binding signal,[32],279000
same,CR6261 binding signal,[33],182000
same,CR6261 binding signal,[34],477000
same,CR6261 binding signal,[35],242000
